Experimental data taken from patent US20100151486A1, “OSTEOPONTIN FUNCTIONAL EPITOPES, MONOCLONAL ANTIBODIES AGAINST THE EPITOPES AND USES THEREOF” (SHANGHAI NATIONAL ENGINEERING RESEARCH CENTER OF A, priority 2007, published 2010).

B1: humanized anti-hOPN antibody h1A12 (h1A12Hb/h1A12Lb) (antibody, human IgG1, kappa, V domains shown)
VH: QVQLVQSGAEVKKPGASVKVSCKSSGYTFTTYVMHWVKQAPGQGLEWIGYINPYNDGSKYNEKFKGRVTITSDKSASTAYMELSSLRSEDTAVYYCASHYGGSPAYWGQGTLVTVSS
VL: DVLMTQSPLSLPVTLGQPASISCRSSQSLVHSNGNTYLHWFQQRPGQSPKLLIYKVSNRFSGVPDRFSGSGSGTDFTLKISRVEAEDVGVYYCSQSTHVPWTFGGGTKVEIKR
notes: Tested as COS-1 supernatant in the ELISA; also called humanized antibody 1A12
B2: h1A12: humanized anti-hOPN mAb; VH SEQ ID NO: 19, VL SEQ ID NO: 21, human constant region (antibody, V domains shown)
VH: B1 VH
VL: B1 VL
modifications: human constant regions; amino acid sequence of the VH in humanized anti-OPN antibody H1A12; amino acid sequence of the VL in humanized anti-OPN antibody H1A12
B3: c1A12: chimeric anti-hOPN mAb between human and murine; VH SEQ ID NO: 4, VL SEQ ID NO: 6, human constant region (antibody, V domains shown)
VH: QVQLEQSGPELVKPGASVKMSCKSSGYTFTTYVMHWVKQKPGQGLEWIGYINPYNDGSKYNEKFKGKATLTSDKSSNTAYMELSSLTSEDSAVYYCASHYGGSPAYWGQGTLVTVSA
VL: DILMTQTPLSLPVSLGDQASISCRSSQSLVHSNGNTYLHWYLQKPGQSPKLLIYKVSNRFSGVPDRFSGSGSGTDFTLKISRVEAEDLGVYFCSQSTHVPWTFGGGTKLEIKR
modifications: human constant regions; amino acid sequence of the heavy chain variable region in 1A12; amino acid sequence of the light chain variable region in 1A12

Tests used:
[1] = biological target: T1, human osteopontin (human OPN protein) (human, UniProt P10451 17-314, limits assumed); experiment: ELISA, plate coated with OPN 2 ug/ml, COS-1 supernatant, HRP-rabbit anti-human IgG
T1 construct: The isoform follows from the 963 bp PCR fragment and is not otherwise stated; also called hOPN
T1 sequence (P10451 17-314 limits assumed): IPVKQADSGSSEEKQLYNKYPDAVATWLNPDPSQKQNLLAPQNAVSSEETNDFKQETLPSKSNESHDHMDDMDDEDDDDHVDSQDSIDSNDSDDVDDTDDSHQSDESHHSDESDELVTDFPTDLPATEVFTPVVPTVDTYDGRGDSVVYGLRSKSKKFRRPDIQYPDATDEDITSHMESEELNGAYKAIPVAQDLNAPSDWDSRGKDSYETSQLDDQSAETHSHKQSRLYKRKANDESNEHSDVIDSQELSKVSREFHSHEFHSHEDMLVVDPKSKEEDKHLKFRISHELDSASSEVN
Procedure: An ELISA plate was coated with 2 ug/ml OPN. The binding activity of the humanized antibody obtained from the transfection was detected by ELISA. […] The amino acid sequences of the h1A12HBb's and the h1A12Lb's variable regions were shown in FIG. 4, SEQ ID NO: 18 and SEQ ID NO: 19 show the nucleotide sequence and the amino acid sequence of h1A12Hb's variable region respectively. SEQ ID NO: 20 and SEQ ID NO: 21 show the nucleotide sequence and the amino acid sequence of h1A12Lb's variable region respectively. The genes of the humanized antibody's VH and VL (h1A12VHb/h1A12VLb) were synthesized respectively. […] Then, expression vectors of the light and the heavy chain were used to co-transfect the COS-1 cells. The antibody's antigen-binding activity was determined by ELISA. Specifically, an ELISA plate was coated with OPN protein (2 ug/ml) coated at 4° C. overnight, and was blocked with 2% BSA-PBS for 2 h at 37° C. […] HRP-rabbit anti-human IgG was added into the plate for binding reaction (incubated at 37° C. for 1 h).

[2] = system: MDA-MB-435s cells; experiment: Cell adhesion assay on hOPN-coated plate; assay type: cell-based; conditions: antibody 25 μg/ml; plate coated with 10 μg/ml hOPN; 2 hrs
Procedure: MDA-MB-435s was purchased from the Institute of Cell Biology of Chinese Academy of Sciences (Shanghai, China), and 23C3D3 was used as the irrelevant antibody.
A 96-well plate (Greiner) was coated with 10 μg/ml hOPN (prepared in Example 3) or BSA (SIGMA) at 4° C. overnight, and was then blocked with 1% BSA/PBS at 37° C. for 1 hour to block any non-specific binding sites. The MDA-MB-435s cells were detached using 0.2% EDTA and then re-suspended in 0.25% BSA/DMEM at the concentration of 5×10^5 cells/ml. To each well, 100 μl (5×10^4) MDA-MB-435s cells were added in the presence of various anti-OPN antibodies (25 μg/ml) murine anti-human OPN antibody 1A12, the human-murine chimeric antibody c 1A12 or the humanized antibody h1A12 as treatment groups and the irrelevant antibody 23C3 as control (25 μg/ml). After incubation at 37° C. for 2 hrs, the medium was removed and washed twice with PBS gently. The adherent cells were fixed in 1% formaldehyde at 4° C. for 10 minutes, stained with 0.5% crystal violet after washed with PBS and lysed with 2% Triton X-100 (50 μl). The absorbance was measured at 595 nm.

[3] = system: MDA-MB-435s cells; experiment: Cell invasion assay (Transwell, Matrigel); assay type: cell-based; conditions: antibody 25 μg/ml; in the presence of hOPN; 24 hours
Procedure: The assay of cell invasion was carried out using the Transwell system (Corning) with the pore size of […]. The basement membrane of the upper chamber was coated with the artificial matrix gel (Matrigel). After being dried in a flame hood, the matrigel was hydrated with DMEM at 37° C. for 1 hour. MDA-MB-435s cells were detached using 0.2% EDTA and suspended in 0.25% BSA/DMEM at the concentration of 5×10^5 cells/ml. 100 μl of the obtained cell suspension as well as the following 25 μg/nil of antibodies were respectively added into the upper chamber of each well: 1A12 (murine anti-human OPN antibody), c1A12 (human-mouse chimeric antibody), h1A12 (humanized antibody), and 23C3 (irrelevant antibody control). To lower chamber, 0.25% of BSA/DMEM (with or without OPN) was added. The system was then incubated in incubator at 37° C. for 24 hours. After that, the cells remaining in the upper chamber was wiped away using a cotton swab, and the cells penetrate through the basement membrane into the lower chamber were washed with PBS, fixed with 1% formaldehyde, and then stained with 0.5% crystal violet. The cells were counted in the field at 200× magnification under a microscope.

[4] = system: MDA-MB-435s cells; experiment: Scratch wound healing assay; assay type: cell-based; conditions: antibody 25 μg/ml; 24 hours
Procedure: The MDA-MB-435s cells cultured in a 12-wells plate to almost confluent (90%) washed with PBS and starved overnight with serum-free DMEM. Scratches were made on the cell monolayer using a 10 μl pipette, and PBS was added to wash away the floating cells. The test groups were treated with 25 μg/ml of the murine anti-human OPN antibody 1A12, the human-murine chimeric antibody c1A12 and the humanized antibody h1A12, and the control group, 25 μg/ml of the irrelevant antibody. The cells were incubated in an incubator at 37° C. for 24 hours. The result was expressed as the number of the cells that cross the base line.

[5] = system: MDA-MB-435s cells; experiment: Clone formation on soft agar assay; assay type: cell-based; conditions: antibody 25 μg/ml every other day; 3 weeks
Procedure: The assay of clone formation on soft agar was conducted using a double-layer soft agar system. 2.5% melted agar was mixed the DMEM medium pre-warmed at 37° C. to formulate a 0.5% agar solution, which was then diluted with DMEM to a 0.3% agar solution. To each well of a 24-well plate was added 500 μl of a 0.5% agar solution, which was allowed to gel at 4° C., and then kept warm in an incubator at 37°C. The MDA-MB-435s cells were detached using 0.2% .EDTA and suspended in the 0.3% agar solution at the concentration of 5×10^3 cells/ml. 500 μl of the cell suspension was added each well and left to gel. From the second day, the cells were respectively treated with 1A12, c1A12, h1A12 or the irrelevant antibody (23C3D3) (25 μg/ml) every other day. After 3 weeks, the colony formation ability was evaluated by measuring the size of colonies containing more than 10 cells.

[6] = system: human vascular endothelial cell (HUVEC); experiment: HUVEC proliferation by 3H-TdR incorporation; assay type: cell-based; conditions: M200+1% BSA+OPN+antibody; 24 hours
Procedure: HUVEC cell proliferation was measured by the ^3H-TdR incorporation method to determine the protective effect of OPN on cell survival and the inhibitory effect of the anti-OPN antibodies on the OPN protection. Each well of a 96-well plate was inoculated with 2×10^4 HUVECs and cultured in a complete medium for 24 hours. The cells were then treated as following for 24 hours: […]
iv. M200+1% BSA+OPN+murine anti-OPN antibody 1A12 v. M200+1% , BSA+OPN+human-murine chimeric anti-OPN antibody c1A12 vi. M200+1% BSA+OPN+humanized anti-OPN antibody h1A12 vii. M200+1% BSA+OPN+irrelevant antibody
24 hours later, 1 uCi/well ^3H-thymidine was added and, after being incubated at 37° C. for 6 hours, washed once with PBS. The plate was treated with ice-cold 10% trichloroacetic acid/H2O at 4° C. for 10 min, and then washed for two times with, ice-cold ddH2O. Cytolysis was conducted by adding into each well 0.1 ml of 0.5 N NaOH, 0.5% SDS at room temperature for 10 min. After adding 0.2 ml of 0.5 N HCl and mixing, the cells were collected using a multiple cell collector.

[7] = system: HUVECs; experiment: Formation of capillary-like structure in HUVECs on matrigel; assay type: cell-based, human
Procedure: HUVECs were cultured in the M200 medium containing LCGS to 80% confluence. The matrigel stored at −20° C. was took out the day before experiment and naturally thawed at 4° C. for 3 to 12 hours. To each well of a 96-welt plate was added […] using a pre-cooled pipet with carefully removing the bubbles, wherein the whole procedure was carried on ice. The loaded plate was incubated at 37° C. for 1 hour to gel the matrigel. To each well, 100 μl HUVECs (2×10^4/well) was gently added onto the surface of matrigel. To the treatment groups were further added the anti-hOPN antibodies 1A12, c1A12 and h1A12. The plate was incubated at 37° C. for […], and the formation of the capillary-like structure was observed 6 hours after.

[8] = system: rabbit cornea; experiment: OPN-induced rabbit corneal neovascularization; assay type: in vivo; conditions: pellet with 200 ng hOPN and 1 μg antibody; for area of neovascularization / length of the newly generated blood vessels: relative to irrelevant antibody group, P<0,01
Procedure: The Hydron powder was dissolved in anhydrous ethanol under sterile condition to the final concentration of 12% (w/v), and dissolved with agitation under 37° C. to formulate the 12% Hydron cast solution, which was then stored at room temperature. A quota of sucralfate powder formulated in sterile Milli Q water under sterile conditions as a suspension with the final concentration of 100 μg/μl, which was stored at 4° C., and vortexed to homogeneous intermediately before use. Sustained-release pellets were prepared to each containing 200 ng hOPN and 50 μg sucralfate and, for the antibody groups, 1 μg anti-OPN antibodies, and for the control, the irrelevant antibody. The 12% Flydron east solution and the hOPN-sucralfate-PBS blend were mixed as the ratio of 1:1 (volume ratio), vortexed for 1 min. Then 5 μl mixed Hydron-sucralfate-hOPN solution was added onto a sterilized Parafilm surface, dried for about 30 min on a super-clean bench for a complete polymerization. The polymers were then shaped into uniform circular granules with a 2 mm diameter using an eye tweezers. The granules were stored at −20′C. Animals were grouped in the same way as in Experiment II-3, each group consisting of four eyes.
The rabbit was anesthetized at ear edge vein with 3% sodium pentobarbital (1 ml/kg body weight) and on both corneal surfaces with 1% tetracaine. The thickness of the cornea was measured using an ultrasonic cornea thickness gauge. A 3 mm half-depth incision was made at the center of the cornea using an ophthalmic knife, and an undermining tunnel toward the 12 o'clock or 3 o'clock position on the corneoscleral margin was made using a 2 mm-wide scleral tunnel knife, whereby the tunnel lied within the corneal layer with the top of the tunnel about 1 mm distant from the limbus corneae. The Hydron/sucralfate sustained-release pellet was implanted into the top of tunnel using micro-tweezers. The cuts were treated with chlortetracycline eye ointment after the surgery. From Day 1 after the surgery, the double-blinded observer observed the rabbit conical neovascularization under the slit-lamp each day, until the Day 10, The length (VL) and the vascular clock angle (CN, 30°=1CN) of the longest vessel were measured, and the area of neovascularization was calculated according to the following formula:
Area (mm^2)=0.2×π×VL (mm)×CN (mm)

Row | binding result [1] | Molecule | blocking of the binding between MDA-MB-435s cells and hOPN [2] | blocking of invasion of the basement membrane by MDA-MB-435s [3] | inhibition of the reparation of the scratches and damages [4] | inhibition of clone size formed by MDA-MB-435s cells on soft agar [5] | 3H-TdR incorporation relative to the OPN group [6] | potency of forming the capillary-like structure in HUVECs [7] | corneal neovascularization relative to the OPN group [8] | area of neovascularization [8] | length of the newly generated blood vessels [8]
1 | binds | B1 |  |  |  |  |  |  |  |  | 
2 |  | B2 | effectively block | effectively block | effectively inhibit | no significant differences | significantly lower | reduce | significantly reduced | significantly shrunk | significantly reduced
3 |  | B3 | effectively block | effectively block | effectively inhibit | no significant differences | significantly lower | reduce | significantly reduced | significantly shrunk | significantly reduced
